The results in this text go back to paper PMC6437208.

The test addresses CsgB-His (curli nucleator CsgB with C-terminal poly-histidine tag) (E. coli) (UniProt P0ABK7).
Chain of UniProt P0ABK7 (P0ABK7 22-151): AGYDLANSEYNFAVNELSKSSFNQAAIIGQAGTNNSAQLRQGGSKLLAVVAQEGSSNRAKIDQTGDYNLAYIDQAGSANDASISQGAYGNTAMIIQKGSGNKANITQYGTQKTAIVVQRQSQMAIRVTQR

With CsgA R5 subunit domain peptide, the ThT assay: reduction of tau50 of R5 fibril formation in the presence of CB-origami was 1.5 h.
